Target: His-EutM-SpyCatcher (N-His-GS-EutM-GS-SpyCatcher)

B1: SpyTag-AmDH (N-His-thrombin-SpyTag-GS-Ch1-AmDH) (protein)
chain: MGSSHHHHHHSSGLVPRGSHMMGSSGAHIVMVDAYKPTKGSGGSGVDMSLVEKTSIIKDFTLFEKMSEHEQVVFCNDPATGLRAIIAIHDTTLGPALGGCRMQPYNSVEEALEDALRLSKGMTYSCAASDVDFGGGKAVIIGDPQKDKSPELFRAFGQFVDSLGGRFYTGTDMGTNMEDFIHAMKETNCIVGVPEAYGSSGNPSPATAYGVYRGMKAAAKEAFGSDSLEGKVVAVQGVGNVAYHLCRHLHEEGAKLIVTDINKEAVARAVEEFGAKAVDPNDIYGVECDIFAPCALGGIINDQTIPQLKAKVIAGSALNQLKEPRHGDMIHEMGIVYAPDYVINAGGCINVADELYGYNRERAMKKIEQIYDNIEKVFAIAKRDNIPTYVAADRMAEERIETMRKARSQFLQNGHHILSRRRAR
  relative activity after 48 hours, 1:6 SpyTag-AmDH:EutM-SpyCatcher: approximately 79% relative activity

Source: US20200157153
